Laboratory results taken from patent US20230203138A1.

Target: SARS-CoV-2 spike trimer (S trimer), soluble ectodomain (SARS-CoV-2), P0DTC2
Experiment: cryo-EM structure of Fab 2-4 with S trimer
Settings: remark: other sources report otherwise

B1: Fab of antibody 2-4 (Fab, V domains shown)
VH: QVQLVQSGAEVKKPGASVKVSCKASGYTFTGYYMHWVRQAPGQGLEWMGWINPNSGGTNYTQMFQGRVTMTRDTSISTAYMEVSRLRSDDTAVYYCARDRSWAVVYYYMDVWGKGTTVTVSS
VL: QSALTQPPSASGSPGQSVTISCTGTSSDVGGYNYVSWYQQHPGKAPKLMIYEVSKRPSGVPDRFSGSKSGNTASLTVSGLQAEDEADYYCSSYAGSNNLVFGGGTKLTVL
buried surface area of the epitope on RBD: 751 A2
